Experimental data: US20210395372A1

Legend:
[1] = molecular target: human Met-Fc chimera (human) (UniProt P08581); assay: ELISA
[2] = molecular target: human Met receptor on cells (human) (UniProt P08581); assay: cell-based or functional assay
Chain of human Met receptor on cells (human) (P08581 25-1390): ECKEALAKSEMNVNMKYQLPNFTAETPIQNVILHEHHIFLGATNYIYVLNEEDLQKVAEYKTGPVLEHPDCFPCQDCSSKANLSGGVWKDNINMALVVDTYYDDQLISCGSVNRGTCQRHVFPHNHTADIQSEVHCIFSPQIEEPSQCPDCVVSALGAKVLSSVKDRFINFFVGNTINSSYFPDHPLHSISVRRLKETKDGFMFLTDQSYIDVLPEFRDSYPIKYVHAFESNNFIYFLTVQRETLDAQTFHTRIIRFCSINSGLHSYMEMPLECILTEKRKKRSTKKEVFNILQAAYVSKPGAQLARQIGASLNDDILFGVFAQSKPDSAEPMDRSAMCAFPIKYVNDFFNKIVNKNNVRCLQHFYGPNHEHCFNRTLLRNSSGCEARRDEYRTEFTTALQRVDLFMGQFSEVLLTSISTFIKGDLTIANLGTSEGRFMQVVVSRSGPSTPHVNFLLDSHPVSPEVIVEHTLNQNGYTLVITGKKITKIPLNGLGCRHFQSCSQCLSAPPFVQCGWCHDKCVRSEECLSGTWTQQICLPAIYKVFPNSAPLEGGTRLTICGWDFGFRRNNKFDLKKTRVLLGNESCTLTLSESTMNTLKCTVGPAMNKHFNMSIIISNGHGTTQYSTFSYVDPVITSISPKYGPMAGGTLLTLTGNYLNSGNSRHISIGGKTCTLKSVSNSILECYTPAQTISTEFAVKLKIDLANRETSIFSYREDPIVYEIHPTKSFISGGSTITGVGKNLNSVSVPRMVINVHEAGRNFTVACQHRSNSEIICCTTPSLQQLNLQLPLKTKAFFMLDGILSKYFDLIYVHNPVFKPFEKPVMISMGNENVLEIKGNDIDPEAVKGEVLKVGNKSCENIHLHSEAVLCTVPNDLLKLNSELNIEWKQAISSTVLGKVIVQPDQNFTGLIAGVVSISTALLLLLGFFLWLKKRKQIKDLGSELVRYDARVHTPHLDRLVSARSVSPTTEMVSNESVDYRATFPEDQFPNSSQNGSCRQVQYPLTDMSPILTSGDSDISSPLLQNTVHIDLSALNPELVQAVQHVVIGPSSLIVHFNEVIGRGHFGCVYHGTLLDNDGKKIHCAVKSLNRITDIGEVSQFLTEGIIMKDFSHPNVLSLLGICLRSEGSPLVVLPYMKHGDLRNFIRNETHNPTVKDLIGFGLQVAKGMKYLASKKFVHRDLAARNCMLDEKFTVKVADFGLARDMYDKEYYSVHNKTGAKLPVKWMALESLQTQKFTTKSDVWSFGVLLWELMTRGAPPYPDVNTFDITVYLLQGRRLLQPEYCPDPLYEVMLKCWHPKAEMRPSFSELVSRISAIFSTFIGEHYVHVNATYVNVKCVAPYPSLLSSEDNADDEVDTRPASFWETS

Chain of human Met-Fc chimera (human) (P08581 25-932, change not shown): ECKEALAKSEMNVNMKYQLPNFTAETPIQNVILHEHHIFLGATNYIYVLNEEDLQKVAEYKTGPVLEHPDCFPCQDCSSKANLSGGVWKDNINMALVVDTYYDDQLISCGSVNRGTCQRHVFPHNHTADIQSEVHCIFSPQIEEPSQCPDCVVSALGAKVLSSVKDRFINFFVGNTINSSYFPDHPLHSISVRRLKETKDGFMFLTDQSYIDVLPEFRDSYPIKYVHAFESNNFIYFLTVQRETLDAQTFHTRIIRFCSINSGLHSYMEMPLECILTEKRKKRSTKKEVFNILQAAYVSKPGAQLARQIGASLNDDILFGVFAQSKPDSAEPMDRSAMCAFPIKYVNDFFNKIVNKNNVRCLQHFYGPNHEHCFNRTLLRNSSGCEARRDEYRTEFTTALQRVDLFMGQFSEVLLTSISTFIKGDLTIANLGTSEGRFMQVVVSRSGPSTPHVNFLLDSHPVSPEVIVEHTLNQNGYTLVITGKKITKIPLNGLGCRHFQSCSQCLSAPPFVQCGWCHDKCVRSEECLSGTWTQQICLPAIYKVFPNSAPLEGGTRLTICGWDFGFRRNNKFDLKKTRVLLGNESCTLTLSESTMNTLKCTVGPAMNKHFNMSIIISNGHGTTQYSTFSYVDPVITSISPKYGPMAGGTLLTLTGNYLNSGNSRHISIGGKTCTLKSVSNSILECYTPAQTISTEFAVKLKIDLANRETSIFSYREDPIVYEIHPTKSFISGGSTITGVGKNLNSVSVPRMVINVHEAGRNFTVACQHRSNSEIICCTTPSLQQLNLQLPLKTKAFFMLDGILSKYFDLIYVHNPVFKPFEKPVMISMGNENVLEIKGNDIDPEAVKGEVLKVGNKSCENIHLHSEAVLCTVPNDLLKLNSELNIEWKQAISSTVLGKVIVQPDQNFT

Substance	Kd [1] [pM]	percentage of GTL-16 cells in S phase (EdU), 1 uM antibody [2] [%]	reduction of proliferating GTL-16 cells versus control (EdU), 1 uM antibody [2] [%]
chOA-DN30	319		
chOA-DN30 (antibody)		15	52
